We go through four molecules from doi:10.1101/2024.07.24.604858 (bioRxiv, 2024).

In test [1] the target is T1, PfCSP N-junction peptide NPDP_(20aa) (Plasmodium falciparum (matches 3D7 …)).
T1 chain: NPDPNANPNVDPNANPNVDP
Description: SPR.

Test [2] addresses T2, PfCSP central repeat peptide NANP_(20aa) (Plasmodium falciparum (repeat peptide, …)).
T2 chain: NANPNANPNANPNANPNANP
Description: SPR.

B1: mAb 0786 wt (antibody, V domains shown)
VH: EVQLVESGGGLVQPGRSLRLSCTTSGFTFGDFAMSWVRQAPGKGLEWVGFIRSKANGGSTEYAASVKGRFTISRDDSKSIAYLQMDSLKTEDTAVYYCCRVWIQLWPLDYWGQGTLVTVSS
VL: EIVLTQSPGTLSLSPGERATLSCRASQSIGSSYLAWYQLKPGQAPRLLIYGASSRATGIPDRFSGSGSGTDFTLIISRLEPEDFAVYFCQQYGRSPWTFGQGTKVEIK
Take B1: the binding result in test [1] and in test [2] was “binds” in each case.

B2: mAb 0786 with H.N56 reverted to the GL Tyr (antibody, V domains shown)
VH: EVQLVESGGGLVQPGRSLRLSCTTSGFTFGDFAMSWVRQAPGKGLEWVGFIRSKAYGGSTEYAASVKGRFTISRDDSKSIAYLQMDSLKTEDTAVYYCCRVWIQLWPLDYWGQGTLVTVSS
VL: EIVLTQSPGTLSLSPGERATLSCRASQSIGSSYLAWYQLKPGQAPRLLIYGASSRATGIPDRFSGSGSGTDFTLIISRLEPEDFAVYFCQQYGRSPWTFGQGTKVEIK
Take B2: the binding result in test [1] and in test [2] was “binds” in each case.

B3: mAb 0786 with H.A63P (antibody, V domains shown)
VH: EVQLVESGGGLVQPGRSLRLSCTTSGFTFGDFAMSWVRQAPGKGLEWVGFIRSKANGGSTEYPASVKGRFTISRDDSKSIAYLQMDSLKTEDTAVYYCCRVWIQLWPLDYWGQGTLVTVSS
VL: EIVLTQSPGTLSLSPGERATLSCRASQSIGSSYLAWYQLKPGQAPRLLIYGASSRATGIPDRFSGSGSGTDFTLIISRLEPEDFAVYFCQQYGRSPWTFGQGTKVEIK
As to B3, the binding result in test [1] and in test [2] was “binds” throughout.

B4: mAb 0786 with Arg introduced at H.59 (antibody, V domains shown)
VH: EVQLVESGGGLVQPGRSLRLSCTTSGFTFGDFAMSWVRQAPGKGLEWVGFIRSKANGGRTEYAASVKGRFTISRDDSKSIAYLQMDSLKTEDTAVYYCCRVWIQLWPLDYWGQGTLVTVSS
VL: EIVLTQSPGTLSLSPGERATLSCRASQSIGSSYLAWYQLKPGQAPRLLIYGASSRATGIPDRFSGSGSGTDFTLIISRLEPEDFAVYFCQQYGRSPWTFGQGTKVEIK
As for B4, the binding result in test [1] and in test [2] was “binds” throughout.
